The results in this text go back to patent publication US20030092885A1, “Solubility and stability enhancement tag for structural and ligand binding studies of proteins” (President and Fellows of Harvard College, priority 2001, published 2003).

Data set [1] can be described thus: Solubility of target protein or complex with and without the small solubility and stability enhancing tag. The format is physicochemical.
Data set [2] in a line: Solution stability (time until the sample precipitates) with and without the tag. The format is physicochemical. The settings on record: FAIM, 25° C.

B1: DFF45 NTD: N-terminal domain of human DNA fragmentation factor 45, unfolded when free (protein, UniProt O00273 1-116, looked up, fragment)
chain: MEVTGDAGVPESGEIRTLKPCLLRRNYSREQHGVAASCLEDLRSKACDILAIDKSLTPVTLVLAEDGTIVDDDDYFLCLPSNTKFVALASNEKWAYNNSDGGTAWISQESFDVDET
B1: in data set [1] (FIG. 4 legend), the solubility was 200 µM.

B2: FAIM protein: 20 kDa apoptosis inhibitor in b cells, untagged (protein, UniProt Q9NVQ4 2-179, looked up)
Fas apoptotic inhibitory …: TDLVAVWDVALSDGVHKIEFEHGTTSGKRVVYVDGKEEIRKEWMFKLVGKETFYVGAAKTKATINIDAISGFAYEYTLEINGKSLKKYMEDRSKTTNTWVLHMDGENFRIVLEKDAMDVWCNGKKLETAGEFVDDGTETHFSIGNHDCYIKAVSSGKRKEGIIHTLIVDNREIPEIAS
As to B2, the “can be concentrated up to” value in data set [1] (FAIM) is “up to 1 mM”. In addition, in data set [2], the “time until precipitation from solution / stable in solution” value was “one week”.

Broadly, the solubility is the dissolved amount per volume that the medium holds.
